Results from IntAct's records for PubMed 31515488.

B1: Keratin, type II cytoskeletal 79 (Homo sapiens), Q5XKE5 (parent)
chain: MRSSVSRQTYSTKGGFSSNSASGGSGSQARTSFSSVTVSRSSGSGGGAHCGPGTGGFGSRSLYNLGGHKSISVSVAGGALLGRALGGFGFGSRAFMGQGAGRQTFGPACPPGGIQEVTVNQSLLTPLHVEIDPEIQRVRTQEREQIKTLNNKFASFIDKVRFLEQQNKVLETKWALLQEQGQNLGVTRNNLEPLFEAYLGSMRSTLDRLQSERGRLDSELRNVQDLVEDFKNKYEDEINKHTAAENEFVVLKKDVDAAYMGRMDLHGKVGTLTQEIDFLQQLYEMELSQVQTHVSNTNVVLSMDNNRNLDLDSIIAEVKAQYELIAQRSRAEAEAWYQTKYEELQVTAGKHGDNLRDTKNEIAELTRTIQRLQGEADAAKKQCQQLQTAIAEAEQRGELALKDAQKKLGDLDVALHQAKEDLTRLLRDYQELMNVKLALDVEIATYRKLLESEESRMSGECPSAVSISVTGNSTTVCGGGAASFGGGISLGGSGGATKGGFSTNVGYSTVKGGPVSAGTSILRKTTTVKTSSQRY
partner: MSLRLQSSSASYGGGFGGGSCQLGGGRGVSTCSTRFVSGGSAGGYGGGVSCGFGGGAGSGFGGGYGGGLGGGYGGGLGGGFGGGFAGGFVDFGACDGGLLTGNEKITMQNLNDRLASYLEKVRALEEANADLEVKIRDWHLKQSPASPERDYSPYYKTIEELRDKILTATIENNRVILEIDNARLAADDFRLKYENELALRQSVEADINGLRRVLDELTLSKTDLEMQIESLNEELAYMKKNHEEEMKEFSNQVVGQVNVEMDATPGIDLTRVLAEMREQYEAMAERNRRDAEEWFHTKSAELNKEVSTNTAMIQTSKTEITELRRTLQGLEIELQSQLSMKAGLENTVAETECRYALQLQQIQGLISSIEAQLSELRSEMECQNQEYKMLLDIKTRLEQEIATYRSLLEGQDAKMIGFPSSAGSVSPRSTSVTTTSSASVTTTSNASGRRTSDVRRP
B2: Scaffold protein ILK (Homo sapiens), Q13418 (parent)
chain: MDDIFTQCREGNAVAVRLWLDNTENDLNQGDDHGFSPLHWACREGRSAVVEMLIMRGARINVMNRGDDTPLHLAASHGHRDIVQKLLQYKADINAVNEHGNVPLHYACFWGQDQVAEDLVANGALVSICNKYGEMPVDKAKAPLRELLRERAEKMGQNLNRIPYKDTFWKGTTRTRPRNGTLNKHSGIDFKQLNFLTKLNENHSGELWKGRWQGNDIVVKVLKVRDWSTRKSRDFNEECPRLRIFSHPNVLPVLGACQSPPAPHPTLITHWMPYGSLYNVLHEGTNFVVDQSQAVKFALDMARGMAFLHTLEPLIPRHALNSRSVMIDEDMTARISMADVKFSFQCPGRMYAPAWVAPEALQKKPEDTNRRSADMWSFAVLLWELVTREVPFADLSNMEIGMKVALEGLRPTIPPGISPHVCKLMKICMNEDPAKRPKFDMIVPILEKMQDK
partner: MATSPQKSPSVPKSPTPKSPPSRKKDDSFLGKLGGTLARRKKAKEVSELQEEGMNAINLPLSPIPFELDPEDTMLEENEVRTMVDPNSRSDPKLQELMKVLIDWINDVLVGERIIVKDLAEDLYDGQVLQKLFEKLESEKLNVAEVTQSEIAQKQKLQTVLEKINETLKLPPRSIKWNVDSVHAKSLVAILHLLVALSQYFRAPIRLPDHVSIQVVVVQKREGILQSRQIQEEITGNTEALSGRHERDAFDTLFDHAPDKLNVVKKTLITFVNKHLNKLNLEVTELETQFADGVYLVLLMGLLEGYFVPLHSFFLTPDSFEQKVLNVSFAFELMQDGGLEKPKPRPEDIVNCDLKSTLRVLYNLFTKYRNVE

Variants of: B1
Conditions: with KRT13, P13646

Effect of a mutation on the interaction, with no effect:
MRSSVSRQTYSTKGGFSSNSASGGSGSQARTSFSSVTVSRSSGSGGGAHCGPGTGGFGSRSLYNLGGHKSISVSVAGGALLGRALEGFGFGSRAFMGQGAGRQTFGPACPPGGIQEVTVNQSLLTPLHVEIDPEIQRVRTQEREQIKTLNNKFASFIDKVRFLEQQNKVLETKWALLQEQGQNLGVTRNNLEPLFEAYLGSMRSTLDRLQSERGRLDSELRNVQDLVEDFKNKYEDEINKHTAAENEFVVLKKDVDAAYMGRMDLHGKVGTLTQEIDFLQQLYEMELSQVQTHVSNTNVVLSMDNNRNLDLDSIIAEVKAQYELIAQRSRAEAEAWYQTKYEELQVTAGKHGDNLRDTKNEIAELTRTIQRLQGEADAAKKQCQQLQTAIAEAEQRGELALKDAQKKLGDLDVALHQAKEDLTRLLRDYQELMNVKLALDVEIATYRKLLESEESRMSGECPSAVSISVTGNSTTVCGGGAASFGGGISLGGSGGATKGGFSTNVGYSTVKGGPVSAGTSILRKTTTVKTSSQRY [G86E]
MRSSVSRQTYSTKGGFSSNSASGGSGSQARTSFSSVTVSRSSGSGGGAHCGPGTGGFGSRSLYNLGGHKSISVSVAGGALLGRALGGFGFGSRAFMGQGAGRQTFGPACPPGGIQEVTVNQSLLTPLHVEIDPEIQRVRTQEREQIKTLNNKFASFIDKVQFLEQQNKVLETKWALLQEQGQNLGVTRNNLEPLFEAYLGSMRSTLDRLQSERGRLDSELRNVQDLVEDFKNKYEDEINKHTAAENEFVVLKKDVDAAYMGRMDLHGKVGTLTQEIDFLQQLYEMELSQVQTHVSNTNVVLSMDNNRNLDLDSIIAEVKAQYELIAQRSRAEAEAWYQTKYEELQVTAGKHGDNLRDTKNEIAELTRTIQRLQGEADAAKKQCQQLQTAIAEAEQRGELALKDAQKKLGDLDVALHQAKEDLTRLLRDYQELMNVKLALDVEIATYRKLLESEESRMSGECPSAVSISVTGNSTTVCGGGAASFGGGISLGGSGGATKGGFSTNVGYSTVKGGPVSAGTSILRKTTTVKTSSQRY [R161Q]
MRSSVSRQTYSTKGGFSSNSASGGSGSQARTSFSSVTVSRSSGSGGGAHCGPGTGGFGSRSLYNLGGHKSISVSVAGGALLGRALGGFGFGSRAFMGQGAGRQTFGPACPPGGIQEVTVNQSLLTPLHVEIDPEIQRVRTQEREQIKTLNNKFASFIDKVRFLEQQNKVLETKWALLQEQGQNLGVTRNNLEPLFEAYLGSMRSTLDRLQSEWGRLDSELRNVQDLVEDFKNKYEDEINKHTAAENEFVVLKKDVDAAYMGRMDLHGKVGTLTQEIDFLQQLYEMELSQVQTHVSNTNVVLSMDNNRNLDLDSIIAEVKAQYELIAQRSRAEAEAWYQTKYEELQVTAGKHGDNLRDTKNEIAELTRTIQRLQGEADAAKKQCQQLQTAIAEAEQRGELALKDAQKKLGDLDVALHQAKEDLTRLLRDYQELMNVKLALDVEIATYRKLLESEESRMSGECPSAVSISVTGNSTTVCGGGAASFGGGISLGGSGGATKGGFSTNVGYSTVKGGPVSAGTSILRKTTTVKTSSQRY [R213W]
MRSSVSRQTYSTKGGFSSNSASGGSGSQARTSFSSVTVSRSSGSGGGAHCGPGTGGFGSRSLYNLGGHKSISVSVAGGALLGRALGGFGFGSRAFMGQGAGRQTFGPACPPGGIQEVTVNQSLLTPLHVEIDPEIQRVRTQEREQIKTLNNKFASFIDKVRFLEQQNKVLETKWALLQEQGQNLGVTRNNLEPLFEAYLGSMRSTLDRLQSERGRLYSELRNVQDLVEDFKNKYEDEINKHTAAENEFVVLKKDVDAAYMGRMDLHGKVGTLTQEIDFLQQLYEMELSQVQTHVSNTNVVLSMDNNRNLDLDSIIAEVKAQYELIAQRSRAEAEAWYQTKYEELQVTAGKHGDNLRDTKNEIAELTRTIQRLQGEADAAKKQCQQLQTAIAEAEQRGELALKDAQKKLGDLDVALHQAKEDLTRLLRDYQELMNVKLALDVEIATYRKLLESEESRMSGECPSAVSISVTGNSTTVCGGGAASFGGGISLGGSGGATKGGFSTNVGYSTVKGGPVSAGTSILRKTTTVKTSSQRY [D217Y]
MRSSVSRQTYSTKGGFSSNSASGGSGSQARTSFSSVTVSRSSGSGGGAHCGPGTGGFGSRSLYNLGGHKSISVSVAGGALLGRALGGFGFGSRAFMGQGAGRQTFGPACPPGGIQEVTVNQSLLTPLHVEIDPEIQRVRTQEREQIKTLNNKFASFIDKVRFLEQQNKVLETKWALLQEQGQNLGVTRNNLEPLFEAYLGSMRSTLDRLQSERGRLDSELRNVQDLVEDFKNKYEDEINKHTAAENEFVVLKKDVDAAYMGRMDLRGKVGTLTQEIDFLQQLYEMELSQVQTHVSNTNVVLSMDNNRNLDLDSIIAEVKAQYELIAQRSRAEAEAWYQTKYEELQVTAGKHGDNLRDTKNEIAELTRTIQRLQGEADAAKKQCQQLQTAIAEAEQRGELALKDAQKKLGDLDVALHQAKEDLTRLLRDYQELMNVKLALDVEIATYRKLLESEESRMSGECPSAVSISVTGNSTTVCGGGAASFGGGISLGGSGGATKGGFSTNVGYSTVKGGPVSAGTSILRKTTTVKTSSQRY [H266R]

Variants of: B2
Conditions: with parva_human PARVA

Effect of a mutation on the interaction, with no effect:
MDDIFTQCREGNAVAVRLWLDNTENDLNQGDDHGFSPLHWACREGHSAVVEMLIMRGARINVMNRGDDTPLHLAASHGHRDIVQKLLQYKADINAVNEHGNVPLHYACFWGQDQVAEDLVANGALVSICNKYGEMPVDKAKAPLRELLRERAEKMGQNLNRIPYKDTFWKGTTRTRPRNGTLNKHSGIDFKQLNFLTKLNENHSGELWKGRWQGNDIVVKVLKVRDWSTRKSRDFNEECPRLRIFSHPNVLPVLGACQSPPAPHPTLITHWMPYGSLYNVLHEGTNFVVDQSQAVKFALDMARGMAFLHTLEPLIPRHALNSRSVMIDEDMTARISMADVKFSFQCPGRMYAPAWVAPEALQKKPEDTNRRSADMWSFAVLLWELVTREVPFADLSNMEIGMKVALEGLRPTIPPGISPHVCKLMKICMNEDPAKRPKFDMIVPILEKMQDK [R46H]
